Substrate: NC(=O)C[C@H](N)C(=O)O
Test: purified protein
Details: PBS pH 7.2, 37 °C, 1-200 mM asparagine

B1: PtAsp2like1 (Picrophilus oshimae DSM 9789) (protein)
chain: MNVIMLHGGAGSTGVEQKLMEYAVKSKSGSALDSVCNAVVLMENDPCFNAGTGSCMRLDGSIQMDAAVMTSKGFGSVMAIENVKNPVLVARAVMERSPHLIMAGDGAEKFAHLLGFEKYDPSTERAAKRRENDISMILSRKIDSYNKMMETVDISKFVDTVGAVARVNGEFAAAVSTGGAPPMLRGRVGDSPVPGAGIFCGENGAVVATGVGEEIIKNMLCISIYNEIGRESLSKIVMKNISRFRYHAGVIAVSNEEYFAYSNTDMSYAALEF
- Km: 11.69 mM
- kcat: 0.056 s⁻¹

Reference: publication PMC9670692
